The values below come from article PMC8427195, “Dehydrogenation Mechanism of Three Stereoisomers of Butane-2,3-Diol in Pseudomonas putida KT2440” (Frontiers in Bioengineering and Biotechnology, 2021).

Data set [1] addresses (2R,3R)-2,3-BDO dehydrogenase (PP0552) of Pseudomonas putida KT2440 (Pseudomonas putida KT2440). Briefly: SEC; Superdex 200 10/300 GL gel filtration; eluent 50 mM sodium phosphate pH 7.2, 150 mM sodium chloride, 0.5 mL min^-1; native molecular weight estimated against standard proteins and compared with the monomer mass.
Substrate in data set [2]: C[C@@H](O)[C@@H](C)O
Briefly: purified protein. Conditions: oxidation with NAD+ (1 mM in general assay), 50 mM Tris-HCl pH 7.4, 30 °C.

Substrate in data set [3]: C[C@H](O)[C@@H](C)O
Briefly: purified protein. The following applies: oxidation with NAD+ (1 mM in general assay), 50 mM Tris-HCl pH 7.4, 30 °C.

Substrate in data set [4]: CC(=O)C(C)O
Nature of the data set: purified protein. Type of data set: biochemical, Pseudomonas putida. Conditions: reduction with NADH (0.2 mM in general assay), pH 7.4, 30 °C, apparent Km.

Substrate in data set [5]: NC(=O)C1=CN([C@@H]2O[C@H](COP(=O)(O)OP(=O)(O)OC[C@H]3O[C@@H](n4cnc5c(N)ncnc54)[C@H](O)[C@@H]3O)[C@@H](O)[C@H]2O)C=CC1
Nature of the data set: purified protein. It counts as biochemical, Pseudomonas putida. The following applies: reductive direction, pH 7.4, 30 °C, apparent Km, varied: cofactor.

Substrate in data set [6]: NC(=O)c1ccc[n+]([C@@H]2O[C@H](COP(=O)(O)OP(=O)(O)OC[C@H]3O[C@@H](n4cnc5c(N)ncnc54)[C@H](O)[C@@H]3O)[C@@H](O)[C@H]2O)c1
Briefly: purified protein. It counts as biochemical, Pseudomonas putida. Conditions: oxidative direction, diol co-substrate not stated (10 mM in general assay), pH 7.4, 30 °C, varied: cofactor.

With “(2R,3R)-2,3-BDO dehydrogenase (PP0552) of Pseudomonas putida KT2440 (enzyme)”, the stoichiometry N in data set [1] is 4.

B1: R,R-BDH (PP0552), (2R,3R)-2,3-BDO dehydrogenase (Pseudomonas putida KT2440) (protein)
chain: MNDLSHTHMRAAVWHGRHDIRVEQVPLPADPAPGWVQIKVDWCGICGSDLHEYVAGPVFIPVEAPHPLTGIQGQCILGHEFCGHIAKLGEGVEGYAVGDPVAADACQHCGTCYYCTHGLYNICERLAFTGLMNNGAFAELVNVPANLLYRLPQGFPAEAGALIEPLAVGMHAVKKAGSLLGQTVVVVGAGTIGLCTIMCAKAAGAAQVIALEMSSARKAKAKEAGANVVLDPSQCDALAEIRALTAGLGADVSFECIGNKHTAKLAIDTIRKAGKCVLVGIFEEPSEFNFFELVSTEKQVLGALAYNGEFADVIAFIADGRLDIRPLVTGRIGLEQIVELGFEELVNNKEENVKIIVSPGVR
In the case of B1, the Km amounted to 155 ± 16 µM in “purified protein [2]”; 251 ± 22 µM in the data set “purified protein [3]”; 101 ± 5 µM in “purified protein [4]”; 119 ± 22 µM in the data set “purified protein [5]”; 825 ± 96 µM in “purified protein [6]”. Further, the catalytic constant (kcat) in “purified protein [2]” turned out to be 23.9 s⁻¹; in “purified protein [3]”, 21.1 s⁻¹; in the data set “purified protein [4]”, 34.34 ± 0.256 s⁻¹; in the data set “purified protein [5]” it was 53.3 ± 5.16 s⁻¹; in “purified protein [6]” it was 52.8 ± 3.8 s⁻¹. The kcat/Km in the data set “purified protein [2]” is 154000 M⁻¹ s⁻¹; in “purified protein [3]”, 84300 M⁻¹ s⁻¹; in the data set “purified protein [4]”, 341000 ± 16900 M⁻¹ s⁻¹; in “purified protein [5]”, 454000 ± 36600 M⁻¹ s⁻¹; in the data set “purified protein [6]”, 64300 ± 3120 M⁻¹ s⁻¹.

The stoichiometry N is a count of units in the complex or per binding partner. A word on the Km: it is the substrate concentration at which the rate is half of its maximum. What is called kcat is the maximal rate divided by the concentration of active sites. The term kcat/Km denotes the second-order rate constant that governs catalysis at low substrate concentration.
